{"source": "paper PMC6651773", "about": "“2-Ketogluconate Kinase from Cupriavidus necator H16: Purification, Characterization, and Exploration of Its Substrate Specificity” (Molecules, 2019)", "proteins": {"B1": {"name": "KGUKCnec (2-ketogluconate kinase from C. necator H16) (Cupriavidus necator H16) (protein)", "chain": "MSTDLDVVTLGEAMLMLVAGEAGPLEGAQTFHKRTAGAETNVAIGLSRLGLKVGWASRLGDDSMARYLLGEMQREGVDCSQVVCEPGERTGFQFKGRVDDGSDPPVEYHRRGSAASRMNPEHLDGRWLRRSRHLHVTGVFPALAAGTQAATRQAIATMQAAGRTISFDPNLRPTLWASPELMRETLNDLAQQCDWVLPGIEEGRFLTGHAEPERIAAFYRARGARLVVVKLGADGAYFDGEAGTGHVEAFSVEHVVDTVGAGDGFAVGVISALLEGRPVRDAVRRGAWIGARAVQVRGDTEGLPTHAQLAAASL", "notes": "full-length ORF (PCR primers kguK-NdeI 5' […] 3' / kguK-BamHI 5' […] 3'"}}, "test_in_all_cases": "purified protein", "type_in_all_cases": "biochemical, Cupriavidus necator", "key": {"[1]": {"substrate": "O=C(O)C(=O)C[C@H](O)[C@H](O)CO", "settings": "ATP 1.25 mM, Mg2+ 5 mM, Tris-HCl pH 8.0, KCl 50 mM, 25 °C"}, "[2]": {"substrate": "O=C(O)C(=O)C[C@@H](O)[C@H](O)CO", "settings": "ATP 1.25 mM, Mg2+ 5 mM, Tris-HCl pH 8.0, KCl 50 mM, 25 °C"}, "[3]": {"substrate": "O=C(O)C(=O)[C@@H](O)[C@H](O)[C@H](O)CO", "settings": "ATP 1.25 mM, Mg2+ 5 mM, Tris-HCl pH 8.0, KCl 50 mM, 25 °C, sigmoid, Hill n = 1.4"}, "[4]": {"substrate": "O=C(O)C(=O)[C@H](O)[C@@H](O)[C@H](O)CO", "settings": "ATP 1.25 mM, Mg2+ 5 mM, Tris-HCl pH 8.0, KCl 50 mM, 25 °C"}, "[5]": {"substrate": "Nc1ncnc2c1ncn2[C@@H]1O[C@H](COP(=O)(O)OP(=O)(O)OP(=O)(O)O)[C@@H](O)[C@H]1O", "settings": "KG 1.25 mM, Mg2+ 5 mM, Tris-HCl pH 8.0, KCl 50 mM, 25 °C"}}}
{"protein": "B1", "values": [{"measurement": "Km", "setting": "[1]", "result": "1400 ± 200", "unit": "µM"}, {"measurement": "Vmax", "setting": "[1]", "result": 18.2, "unit": "µmol/min/mg"}, {"measurement": "kcat", "setting": "[1]", "result": "10.2 ± 0.5", "unit": "s⁻¹"}, {"measurement": "kcat/Km", "setting": "[1]", "result": "7370 ± 970", "unit": "M⁻¹ s⁻¹"}, {"measurement": "Km", "setting": "[2]", "result": "25000 ± 4000", "unit": "µM"}, {"measurement": "Vmax", "setting": "[2]", "result": 3.7, "unit": "µmol/min/mg"}, {"measurement": "kcat", "setting": "[2]", "result": "2.1 ± 0.2", "unit": "s⁻¹"}, {"measurement": "kcat/Km", "setting": "[2]", "result": "83 ± 20", "unit": "M⁻¹ s⁻¹"}, {"measurement": "K0.5", "setting": "[3]", "result": "0.35 ± 0.03", "unit": "mM"}, {"measurement": "Vmax", "setting": "[3]", "result": 10.4, "unit": "µmol/min/mg"}, {"measurement": "kcat", "setting": "[3]", "result": "5.8 ± 0.2", "unit": "s⁻¹"}, {"measurement": "kcat/Km", "setting": "[3]", "result": "16800 ± 1300", "unit": "M⁻¹ s⁻¹"}, {"measurement": "Km", "setting": "[4]", "result": "4000 ± 1000", "unit": "µM"}, {"measurement": "Vmax", "setting": "[4]", "result": 1.9, "unit": "µmol/min/mg"}, {"measurement": "kcat", "setting": "[4]", "result": "1.1 ± 0.1", "unit": "s⁻¹"}, {"measurement": "kcat/Km", "setting": "[4]", "result": "246 ± 70", "unit": "M⁻¹ s⁻¹"}, {"measurement": "Km", "setting": "[5]", "result": "73 ± 2", "unit": "µM"}, {"measurement": "Vmax", "setting": "[5]", "result": 10.2, "unit": "µmol/min/mg"}, {"measurement": "kcat", "setting": "[5]", "result": "5.71 ± 0.05", "unit": "s⁻¹"}, {"measurement": "kcat/Km", "setting": "[5]", "result": "78200 ± 2500", "unit": "M⁻¹ s⁻¹"}]}
